In the supplement of paper PMC10724198:
± gives the standard deviation of the averaged measurements.

What follows are sequences tested on Saccharomyces cerevisiae (assay: protein stability index of tFT-peptide fusion (C-terminal peptide) (PSI (0-1 scale)); higher = more stable (slower turnover)). Conditions: genetic background: wild type; temperature: 30 C.
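Also: PSI is a weighted mean of sequencing reads over stability bins, variants kept only with over 10 reads, mCherry proximal and sfGFP distal, peptide attached via GGGS linker.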

Sequence | protein stability index
CEGERRTLSVKP | 0.666 ± 0.033
ERLSEYYPLIKC | 0.602 ± 0.044
GWQCGVNRGGWW | 0.752 ± 0.057
KENEKQRKSHKK | 0.687 ± 0.043
SGRRRAPPAPSP | 0.732 ± 0.037
SVGGGGGAVGGG | 0.68 ± 0.007
SPPLHTFSLPFY | 0.669 ± 0.021
LVGSLGVYGVYV | 0.665 ± 0.043
DSQAEPGLSARL | 0.796 ± 0.059
RVKGCYGPGSGI | 0.685 ± 0.066
PPPPASPPHAPP | 0.653 ± 0.07
VSIAYARHGDSV | 0.693 ± 0.028
PLSPRLPRRRLP | 0.681 ± 0.017
PSRPPPTPPLPP | 0.629 ± 0.14
RRVFSAGTRCGI | 0.761 ± 0.11
YSILYRMQNSKI | 0.696 ± 0.021
PFLPSPPPPVPI | 0.712 ± 0.045
TIWLTFGRTPQS | 0.731 ± 0.042
HSSALFSSRLRF | 0.7223 ± 0.0036
NKKKREYKGMNF | 0.686 ± 0.044
KKKRIRNEYKKR | 0.68 ± 0.0071

Sequence | protein stability index
APRCCPHLLRFR | 0.655 ± 0.055
GQDNSEVLGSVQ | 0.668 ± 0.12
VLRARQGVREPP | 0.526 ± 0.01
TPPSPPLPNQLP | 0.696 ± 0.27
PPRPPSSPLPPR | 0.733 ± 0.055
GRYCDKRLGIVG | 0.699 ± 0.011
STPSLPPPPPSS | 0.6806 ± 0.006
MSEFDVPLPIYM | 0.716 ± 0.063
WPYDRHTRHRET | 0.767 ± 0.092
VLGVTVRFRGIS | 0.642 ± 0.057
EGLRLWGRCCWG | 0.74 ± 0.048
QSFGSYYLTIAL | 0.67 ± 0.036
KKKKKKQEKNKK | 0.694 ± 0.042
FAPPASPPARPP | 0.672 ± 0.016
GGCVSRPLGRCV | 0.648 ± 0.088
RPRIPLNSSSLS | 0.74 ± 0.037
MVVLSGVLPVGD | 0.642 ± 0.0077
SIPLIMPLSDYV | 0.675 ± 0.015
PPPPPPSPPPSP | 0.633 ± 0.044
VGGGGEWCLVRL | 0.685 ± 0.013
SGWSVGVMGESG | 0.627 ± 0.092

Sequence | protein stability index
EGCGLQRGMGVL | 0.681 ± 0.0096
DAVWTRGGEGVW | 0.718 ± 0.019
GLRTPHASVPPQ | 0.66 ± 0.023
SVWGIVWRGNIV | 0.704 ± 0.024
KINAKIYGSEKG | 0.654 ± 0.015
SESKGAMCQRNA | 0.6475 ± 0.0054
PLPPLLLPPPLP | 0.703 ± 0.046
SGVVGLGCVPWF | 0.857 ± 0.2
DLTPWLAPFRER | 0.797 ± 0.097
RVSRSCCATGEG | 0.599 ± 0.019
FPPPPPSFSQPL | 0.741 ± 0.034
GYRVNIDIKIVY | 0.5247 ± 0.0031
PPPPRPSPPPPS | 0.694 ± 0.028
PQPEAPSRPQLA | 0.746 ± 0.065
RVSWGSTRLSRA | 0.6427 ± 0.0064
PPPPPPYHPTPP | 0.6685 ± 0.0011
KLNMLLYNNQEK | 0.631 ± 0.039
RYGYCVPNVMRS | 0.778 ± 0.11
VPMVFSIYFGVS | 0.563 ± 0.012
GAGGGSGGGQPG | 0.656 ± 0.032
HSHKHTREDTVL | 0.657 ± 0.036

Sequence | protein stability index
LGAHRPLLSVLH | 0.661 ± 0.037
AILPFGLLPTHR | 0.745 ± 0.017
REKRSVTQSTTD | 0.796 ± 0.12
YKRKTKMQRVSN | 0.627 ± 0.01
CEYPWGTVVRDG | 0.709 ± 0.045
GGPVEQVYSKGR | 0.721 ± 0.042
MYRLSFAAGRGS | 0.688 ± 0.016
PRLDPTSPPPHA | 0.675 ± 0.0094
SRLVCSTLHWRD | 0.699 ± 0.021
FTLRFGYISDLD | 0.736 ± 0.21
SKKARIYIKKRR | 0.683 ± 0.053
LRFLVVTGSSCS | 0.665 ± 0.052
LCVVRGLLCSPL | 0.628 ± 0.0092
PPPLLPPHPPGL | 0.701 ± 0.0096
LEYLGFSLSGFR | 0.724 ± 0.016
PPLRPPRPHQHS | 0.636 ± 0.039
VGVGGGRWCGRG | 0.69 ± 0.059
RPPPPHPSPLPL | 0.713 ± 0.052
